From article PMC10487846 come the findings set out here.

Assay [1] concerns the target recombinant wild type (wt) XptA2 (Xenorhabdus nematophilus). The assay can be described thus: cryo-EM structure; single-particle cryo-EM of wt XptA2, pre-pore state; first map 7.2 Å, final map 3.1 Å (3.02 Å in the methods); 10 mM Tris, 100 mM NaCl, pH 7.5; C5 symmetry.
The target of assay [2] is seleno-methionine (SeMet) labeled XptA2 (Xenorhabdus nematophilus). Kind of assay: crystal structure; SeMet XptA2 crystals grown in 0.1 M HEPES pH 7.5, 0.2 M NaCl, 16-20% PEG-3000; MR-SAD phasing with the 7 Å cryo-EM map; 3.1 Å; pre-pore state.

As a reminder, the stoichiometry N is the number of molecules, sites or subunits per partner or assembly.

With recombinant wild type (wt) XptA2, in assay [1], the stoichiometry N was 5. In the case of seleno-methionine (SeMet) labeled XptA2, the stoichiometry N in assay [2] turned out to be 5.
